The target in experiment [1] is human epidermal growth factor receptor (EGFR) on the surface of A431 cells (human, UniProt P00533 25-1210). The experiment is described as follows: cell-based or functional assay.
For experiment [2], the target named is T1, full length EGFR protein from A431 cell lysate (affinity purified, or native in the lysate) (human, UniProt P00533 25-1210).
T1 construct: mature; 'mature' is chosen as the nearest form; also called intact EGFR protein; native EGFR
The experiment is described as follows: non-competitive ELISA on immobilized EGFR at 2 and 5 µg/ml coating. Here is the method: The hyperbolic curves were plotted by Graphpad Prism (FIG. 7). […] The affinity was calculated as an association constant (Kaff) as follows: […]
The affinity of the Fab was calculated by non-competitive ELISA as described elsewhere (Raghava G P, et al. J Immunoassay 15:115-28 (1994)). The EGFR proteins were immobilized to an ELISA plate at two different concentrations: 2 μg/ml and 5 μg/ml. After the plate was blocked by 5% milk-PBS, the serially diluted Fab was added to each well. The concentration of Fab and the absorbance optical at 450 nm were plotted in two hyperbolic curves and each Kd was calculated by Graphpad Prism Demo Version.
(In general: An ELISA detects its analyte on a solid surface through an enzyme-linked reagent.)

Data on two molecules can be found in patent US20080131373A1 (VAN ANDEL RESEARCH INSTITUTE, published 2008).

B1: Fab-paclitaxel conjugate (anti-EGFR Fab conjugated to paclitaxel) (Fab, V domains shown)
VH: EVQLVESGGGLVQPGRSLRLSCAASGFTFDDYAMHWVRQAPGKGLEWVAVIWYDGSNKYYADSVKGRFTISRDNSKNTLYLQMNSLRAEDTAVYYCARTLYSNIDYWGQGTLVTVSS
VL: ALTQPPSVSVAPGKTARITCGGNNIGSKSVHWYQQKPGQAPVLVIYYDSDRPSGIPERFSGSNSGNTATLTISRVEAGDEADYYCQVWDSSSDHPVFGGGTKLTVL
modifications: paclitaxel conjugated to the Fab; chain, site and linker not stated
B1: the “IC50 of A431 cell proliferation” value in experiment [1] was 0.02 nM.

B2: anti-EGFR Fab fragment (produced by E. coli deposited as ATCC PTA-7830) (Fab, V domains shown)
VH: B1 VH
VL: B1 VL
notes: Human Fab from a naive phage display library (phagemid pComb3X), expressed in E. coli Top 10 F' and purified from the periplasm; also called the Fab of the present invention
In general, Kd refers to the free concentration of one partner at which half of the binding sites on the other are occupied at equilibrium, for simple one-to-one binding. High values mean lower affinity, low ones higher affinity. In experiment [2], B2 had a Ka of 3.25e+07 M⁻¹ and a dissociation constant Kd of 30.7 nM.
